Experiments:
[1] = biological target: AnPrx6, Prx6 (1-Cys peroxiredoxin) from Anabaena sp. strain PCC 7120 (Anabaena sp. PCC 7120); assay: SAXS; 1.6 mg/ml and 4.8 mg/ml protein; mass from Hen Egg White Lysozyme standard and from Porod volume
[2] = biological target: AnPrx6, Prx6 (1-Cys peroxiredoxin) from Anabaena sp. strain PCC 7120 (Anabaena sp. PCC 7120); assay: SEC; analytical SEC at 0.1, 1 and 10 mg/ml protein, without or with 20 mM H2O2; BioRad Gel Filtration Standard

stoichiometry N [1]: 2 | stoichiometry N [2]: 2
Substance: AnPrx6, Prx6 (1-Cys peroxiredoxin) from Anabaena sp. strain PCC 7120 (enzyme)

— article PMC5719442
